Consider one substance from patent US20080193373A1.

Experiment [1] concerns the target SA-B3/OmpA fusion protein (E. coli OmpA with streptavidin binding ligand peptide SA-B3 inserted) (Escherichia coli). Kind of experiment: magnetic separation (µMACS column) of a mixed E. coli Top10 culture with streptavidin-coated iron nanoparticles; counted as CFU on plates.
The target is the same in experiment [2]. Briefly: magnetic separation (µMACS column) of a mixed E. coli Top10 culture with streptavidin-coated iron nanoparticles; input mix was about 47% OmpA+/SA-B3+ and 53% OmpA+LUX+; counted as CFU on plates.

Chain of SA-B3/OmpA fusion protein (E. coli OmpA with streptavidin binding ligand peptide SA-B3 inserted) (Escherichia coli) (chain, as listed by the source limits assumed): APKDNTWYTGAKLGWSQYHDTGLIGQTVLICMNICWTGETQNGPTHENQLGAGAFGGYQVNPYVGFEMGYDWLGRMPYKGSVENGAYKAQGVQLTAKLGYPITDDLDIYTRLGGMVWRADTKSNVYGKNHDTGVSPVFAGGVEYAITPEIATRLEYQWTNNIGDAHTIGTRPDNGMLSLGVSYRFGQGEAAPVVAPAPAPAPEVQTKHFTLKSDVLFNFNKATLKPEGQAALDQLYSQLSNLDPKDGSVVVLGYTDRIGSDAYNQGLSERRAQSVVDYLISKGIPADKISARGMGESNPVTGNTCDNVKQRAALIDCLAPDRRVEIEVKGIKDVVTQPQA

In the case of “Streptavidin-coated iron-nanoparticles (from UniProt P22629 37-163)”, the proportion of SA-B3-expressing bacteria lost on the columns and while washing in experiment [1] turned out to be 7%. The proportion of bacteria expressing SA-B3 after magnetic separation in experiment [2] came to 92%.
